{
  "source": "patent US6838446B1",
  "about": "“Vector for expression of GPI-enzyme hybrid” (AstraZeneca AB, priority 1999, dated 2005)",
  "key": {"[1]": {"settings": "bacterially expressed standard (Sigma C4053); cited from earlier work"}, "[2]": {"experiment": "HPLC based CPG2 enzyme activity assay with CPG2 capture ELISA, supernatants of transiently transfected COS 7 cells", "format": "biochemical", "settings": "for specific activity of unpurified protein in crude supernatant, expressed in presence of tunicamycin / specific activity of unpurified protein in crude supernatant: COS 7 transient plasmid expression; for specific activity of unpurified protein in crude supernatant, expressed in presence of tunicamycin: 10 μg/ml tunicamycin (unglycosylated protein); for specific activity of unpurified protein in crude supernatant: tunicamycin absent, for CPG2 the combined activity of three protein forms (glycosylated and unglycosylated)", "experimental": "Transient tranfection of COS 7 cells can be achieved using a LIPOFECTIN™ based procedure. LIPOFECTIN™ Reagent (Gibco BRL Cat. No. 18292-011) is a 1:1 (w/w) liposome formulation of the cationic lipid DOTMA and DOPE in membrane filtered water. It binds spontaneously with DNA to form a lipid-DNA complex (Felgner et al., Proc. Natl. Acad Sci. USA (1987) 84, 7431. COS 7 cells are seeded into a 6 well plate a 2×10^5 cell/2 ml/well, from a subconfluent culture and incubated overnight at 37°, 5% CO2. A LIPOFECTIN™/serum free medium mix is made up containing 120 μl LIPOFECTIN™ plus 480 μl serum free medium and incubated at room temperature for 30 minutes. A DNA/serum free medium mix is prepared by mixing 12 μg DNA with 600 μl serum free medium. The LIPOFECTIN™/serum free medium mix is added to the DNA/serum free medium mix and left at room temperature for 15 mins. The cells are washed once with 2 ml serum free-medium, then 800 μl serum free media added plus 200 μl LIPOFECTIN™/DNA mix/well and incubated for 5 hours at 37°, 5% CO2. The LIPOFECIN™/DNA mix is removed from the cells and normal growth media added after which the cells are incubated for 48-72 hours at 37°, 5% CO2 when the supernatants are harvested.\nCOS 7 cells can also be transiently transfected in the presence of the glycosylation inhibitor tunicamycin. The transfection procedure is repeated as above, but after incubating for 5 hours at 37°, 5% CO2, 10 μg/ml tunicamycin (Sigma T7765) is added into the normal growth media.\n(§1) For the CPG2 capture ELISA, 96 well plates precoated with goat anti-mouse IgG are used (PIERCE REACII-BIND™ 15134 plates). A second layer of mouse monoclonal anti-CPG2 diluted 1:800 in PBS/0.05% TWEEN™/BSA is added by overnight incubation at 4°. In between each binding step the plate is washed 3 times with PBS/0.05% TWEEN™. 100 μl test sample is added per well and doubling dilutions in PBS/0.05%TWEEN™ carried out across the plate. A fourth layer of rabbit polyclonal anti-CPG2 diluted 1:2500 in PBS/0.05% TWEEN™/2% BSA is added followed by a final layer of goat anit-rabbit IgG Horse Radish Peroxidase Labelled Antibody (DAKO PO448) diluted 1:1000 in PBS/0.05% TWEEN™/2% BSA. To detect binding, 100 μl per well of developing solution is added [one capsule of phosphate-citrate buffer (Sigma P4922) dissolved in 100 ml water to which is added one 30 mg tablet o-phenyldiamine dihydrochloride (Sigma P4812)] and the reaction stopped after 5 mins by adding 75 μl 2M H2SO4, and the absorbance read at 490 nm.\nTo measure CPG2 enzyme activity in cell supernatant samples at HPLC based CPG2 enzyme assay can be used. 125 βl cell supernatant is pulsed in a micro-centrifuge to remove cell debris and 375 μl fresh reaction buffer (PBS/0.2 mM ZnCl2) added. Upon addition of 100 μM methotrexate, a substrate for the CPG2 enzyme, the reaction is incubated at 37° for 1 hour. The reaction is stopped by the addition of 500 μl methanol/0.2% Trifluoroacetio acid. The 1 ml sample is placed in a capped vial and assayed using HPLC. An isocratic separation with a mobile phase containing: 60% Methanol/40%, 60 mM Ammonium formate/0.1% Trifluoroacetic acid is used with an S5SC×column (Hichrom). 60 μl of sample is injected and the absorbance at 300 nm measured over a total run time of 8 mins/sample giving expected retention times for methotrexate and metabolite of 3.9 and 5.6 respectively.\nThe two plasmids pNG3/RC/CPG2 and pNG3/RC/CPG2(Q3) (which encoded the glycosylatable and Q3 variant secretory forms of the CPG2 protein respectively) were transfected into COS-7 cells using the LIPOFECTIN™ transfection procedure. To confirm that the mutagenesis of CPG2 to CPG2(Q3) had removed all potential glycosylation sites, the two proteins were also expressed in the presence of the glycosylation inhibitor, tunicamycin. After 72 h of expression the cell supernatants were harvested for analysis. […]"}, "[3]": {"experiment": "HPLC based CPG2 enzyme activity assay with CPG2 capture ELISA, supernatants of adenovirally infected CHO K1 cells", "format": "biochemical", "settings": "RAd infected CHO K1 cells, supernatant 48 hours after infection", "experimental": "as §1\nTo measure CPG2 enzyme activity in cell supernatant samples at HPLC based CPG2 enzyme assay can be used. […] 60 μl of sample is injected and the absorbance at 300 nm measured over a total run time of 8 mins/sample giving expected retention times for methotrexate and metabolite of 3.9 and 5.6 respectively. […]"}},
  "data": [
    {"molecule": "bacterial CPG2: purified, bacterially expressed CPG2 used as a standard (Sigma C4053) (protein, UniProt P06621 23-415, looked up) Carboxypeptidase G2: ALAQKRDNVLFQAATDEQPAVIKTLEKLVNIETGTGDAEGIAAAGNFLEAELKNLGFTVTRSKSAGLVVGDNIVGKIKGRGGKNLLLMSHMDTVYLKGILAKAPFRVEGDKAYGPGIADDKGGNAVILHTLKLLKEYGVRDYGTITVLFNTDEEKGSFGSRDLIQEEAKLADYVLSFEPTSAGDEKLSLGTSGIAYVQVNITGKASHAGAAPELGVNALVEASDLVLRTMNIDDKAKNLRFNWTIAKAGNVSNIIPASATLNADVRYARNEDFDAAMKTLEERAQQKKLPEADVKVIVTRGRPAFNAGEGGKKLVDKAVAYYKEAGGTLGVEERTGGGTDAAYAALSGKPVIESLGLPGFGYHSDKAEYVDISAIPRRLYMAARLIMDLGAGK", "values": [
      {"measurement": "specific activity of purified bacterial CPG2", "setting": "[1]", "value": 500, "unit": "units/mg"}
    ]},
    {"molecule": "CPG2(Q3): CPG2 with asparagine at positions 222, 264 & 272 mutated to glutamine, secreted form (protein, UniProt P06621 23-415, looked up, variant N222Q N264Q N272Q, secreted form, CPG2 with asparagine at positions 222, 264 & 272 mutated to glutamine, secreted form) Carboxypeptidase G2: ALAQKRDNVLFQAATDEQPAVIKTLEKLVNIETGTGDAEGIAAAGNFLEAELKNLGFTVTRSKSAGLVVGDNIVGKIKGRGGKNLLLMSHMDTVYLKGILAKAPFRVEGDKAYGPGIADDKGGNAVILHTLKLLKEYGVRDYGTITVLFNTDEEKGSFGSRDLIQEEAKLADYVLSFEPTSAGDEKLSLGTSGIAYVQVQITGKASHAGAAPELGVNALVEASDLVLRTMNIDDKAKNLRFQWTIAKAGQVSNIIPASATLNADVRYARNEDFDAAMKTLEERAQQKKLPEADVKVIVTRGRPAFNAGEGGKKLVDKAVAYYKEAGGTLGVEERTGGGTDAAYAALSGKPVIESLGLPGFGYHSDKAEYVDISAIPRRLYMAARLIMDLGAGK", "values": [
      {"measurement": "specific activity of unpurified protein in crude supernatant, expressed in presence of tunicamycin", "setting": "[2]", "value": "90-124 units/mg"},
      {"measurement": "specific activity of unpurified protein in crude supernatant", "setting": "[2]", "value": "71-120 units/mg"},
      {"measurement": "reduction of enzyme activity by mutagenesis of CPG2 to CPG2(Q3)", "setting": "[2]; as printed: compared with bacterial expressed enzyme", "value": 2, "unit": "fold"},
      {"measurement": "specific activity, fold lower than wild type bacterial enzyme", "setting": "[2]; unpurified protein, COS 7 supernatant", "value": "approximately 5 fold"},
      {"measurement": "specific activity of virally expressed secretable enzyme", "setting": "[3]", "value": 180, "unit": "units/mg"}
    ]},
    {"molecule": "CPG2: carboxypeptidase G2 with kappa light chain secretory leader, unaltered glycosylation sites, expressed from mammalian cells (pNG3/RC/CPG2) (protein, UniProt P06621 23-415, looked up, kappa light chain secretory leader) Carboxypeptidase G2: ALAQKRDNVLFQAATDEQPAVIKTLEKLVNIETGTGDAEGIAAAGNFLEAELKNLGFTVTRSKSAGLVVGDNIVGKIKGRGGKNLLLMSHMDTVYLKGILAKAPFRVEGDKAYGPGIADDKGGNAVILHTLKLLKEYGVRDYGTITVLFNTDEEKGSFGSRDLIQEEAKLADYVLSFEPTSAGDEKLSLGTSGIAYVQVNITGKASHAGAAPELGVNALVEASDLVLRTMNIDDKAKNLRFNWTIAKAGNVSNIIPASATLNADVRYARNEDFDAAMKTLEERAQQKKLPEADVKVIVTRGRPAFNAGEGGKKLVDKAVAYYKEAGGTLGVEERTGGGTDAAYAALSGKPVIESLGLPGFGYHSDKAEYVDISAIPRRLYMAARLIMDLGAGK", "values": [
      {"measurement": "specific activity of unpurified protein in crude supernatant, expressed in presence of tunicamycin", "setting": "[2]", "value": "165-210 units/mg"},
      {"measurement": "specific activity of unpurified protein in crude supernatant", "setting": "[2]", "value": "61-87 units/mg"},
      {"measurement": "specific activity of virally expressed secretable enzyme", "setting": "[3]", "value": 71, "unit": "units/mg"}
    ]}
  ]
}
